Data from patent US20240132578A1.

Assays:
Test in all cases: cell-based or functional assay
[1] = molecular target: HIV-1 92BR020 Env (HIV-1)
HIV-1 CMU02 Env (HIV-1) = molecular target: HIV-1 CMU02 Env (HIV-1)
[2] = molecular target: HIV-1 Env of isolate MGRM-AE-007 (pseudovirus) (HIV-1)
[3] = molecular target: HIV-1 Env of isolate MGRM-AG-009 (pseudovirus) (HIV-1)
[4] = molecular target: HIV-1 Env of isolate MGRM-F1-020 (pseudovirus) (HIV-1)
[5] = molecular target: HIV-1 Env of isolate MGRM-F1-022 (pseudovirus) (HIV-1)
[6] = molecular target: HIV-1 JR-CSF Env I307A (HIV-1 (isolate JR-CSF, clade B)) (UniProt P20871)
[7] = molecular target: HIV-1 JR-CSF Env N392Q (HIV-1 (isolate JR-CSF)) (UniProt P20871)
[8] = molecular target: HIV-1 JR-CSF Env N411A (HIV-1 (isolate JR-CSF)) (UniProt P20871)
[9] = molecular target: HIV-1 JR-CSF Env Q422A (HIV-1 (isolate JR-CSF)) (UniProt P20871)
[10] = molecular target: HIV-1 JR-CSF Env R419A (HIV-1 (isolate JR-CSF)) (UniProt P20871)
[11] = molecular target: HIV-1 envelope glycoprotein (Env) of isolate 92RW008, subtype A (HIV-1)
[12] = molecular target: HIV-1 envelope glycoprotein (Env) of isolate APV_13, on pseudovirus (HIV-1)
[13] = molecular target: HIV-1 envelope glycoprotein (Env) of isolate MGRM-AE-001, subtype AE (HIV-1)
[14] = molecular target: HIV-1 envelope glycoprotein (Env) of isolate PVO.4, on pseudovirus (HIV-1)
[15] = molecular target: HIV-1 envelope glycoprotein (Env) of isolate QH0692.42, on pseudovirus (HIV-1)
[16] = molecular target: HIV-1 envelope glycoprotein (Env) of isolate SC422661.8, on pseudovirus (HIV-1)
[17] = molecular target: HIV-1 envelope glycoprotein (Env) of isolate VLGCA1, subtype A (HIV-1)
[18] = molecular target: HIV-1 Env of isolate 92UG046 (HIV-1)
[19] = molecular target: HIV-1 Env of isolate MG RM-A-008 (pseudovirus) (HIV-1)
[20] = molecular target: HIV-1 Env of isolate MGRM-C-028 (subtype C), on pseudovirus (HIV-1)
[21] = molecular target: HIV-1 Env of pseudovirus isolate APV-6 (clade B) (HIV-1)
[22] = molecular target: HIV-1 Env of isolate MGRM-A-007 (subtype A) (HIV-1)
[23] = molecular target: HIV-1 Env of isolate MGRM-AE-005 (subtype AE) (HIV-1)
[24] = molecular target: HIV-1 Env of isolate MGRM-AG-005 (subtype AG) (HIV-1)
[25] = molecular target: HIV-1 Env of isolate MGRM-AG-011 (subtype AG) (HIV-1)
[26] = molecular target: HIV-1 Env of isolate MGRM-C-004 (HIV-1)
[27] = molecular target: HIV-1 Env of isolate MGRM-D-001 (pseudovirus) (HIV-1)
[28] = molecular target: HIV-1 Env of isolate MGRM-F1-016 (HIV-1)
[29] = molecular target: HIV-1 Env of pseudovirus isolate MGRM-C-023 (clade C) (HIV-1)
[30] = molecular target: HIV-1 Env of pseudovirus MGRM-F1-015 (HIV-1)
[31] = molecular target: HIV-1 Env of pseudovirus MGRM-F1-021 (HIV-1)

Substance	IC50, pseudovirus neutralization [1] [µg/mL]	Fold IC50 increase relative to wild-type [6] [fold]	Fold IC50 increase relative to wild-type (pseudovirus neutralization) [7] [fold]	Fold IC50 increase relative to wild-type (pseudovirus neutralization) [8] [fold]	Fold IC50 increase relative to wild-type (pseudovirus neutralization) [9] [fold]	Fold IC50 increase relative to wild-type (pseudovirus neutralization) [10] [fold]	IC50 (µg/mL), pseudovirus neutralization [18] [µg/mL]	IC50 (µg/mL), single-round pseudovirus neutralization [19] [µg/mL]	IC50, single-round pseudovirus neutralization [20] [µg/mL]	IC50, pseudovirus neutralization [21] [µg/mL]	IC50, pseudovirus neutralization [30] [µg/mL]	IC50, pseudovirus neutralization [31] [µg/mL]	further results
4858_P08 (PGT-123) (antibody)	0.013	5.9	1	0.5	0.8	0.7							IC50, pseudovirus neutralization (HIV-1 CMU02 Env (HIV-1)): > 10 µg/mL; IC50 (µg/mL), pseudovirus neutralization [2]: > 50 µg/mL; IC50 (µg/mL), pseudovirus neutralization [3]: 0.073 µg/mL; IC50 (µg/mL), pseudovirus neutralization [4]: 0.051 µg/mL; IC50 (µg/mL), pseudovirus neutralization [5]: 0.075 µg/mL; IC50, pseudovirus neutralization [11]: 0.003 µg/mL; IC50, pseudovirus neutralization [12]: 0.138 µg/mL; IC50, pseudovirus neutralization [13]: > 50 µg/mL; IC50, pseudovirus neutralization [14]: 0.105 µg/mL; IC50, pseudovirus neutralization [15]: 0.158 µg/mL; IC50, pseudovirus neutralization [16]: 0.039 µg/mL; IC50, pseudovirus neutralization [17]: > 50 µg/mL
4970_K22 (PGT-144) (antibody)	> 10						> 50	> 50	> 50	> 50			
4980_N08 (PGT-143) (antibody)	> 10						> 50	> 50	12.4	14			
4993_K13 (PGT-141) (antibody)	> 10						> 50	> 50	13.8	14.2			
4995_E20 (PGT-142) (antibody)	> 10						> 50	> 50	2.12	4.72			
4995_P16 (PGT-145) (antibody)							> 50	> 50	0.099	0.104			
5114_A19 (PGT-128) (antibody)		3.7	0.9	0.7	0.2	0.5							IC50, pseudovirus neutralization [22]: > 50 µg/mL; IC50, pseudovirus neutralization [23]: 0.032 µg/mL; IC50, pseudovirus neutralization [24]: 0.037 µg/mL; IC50, pseudovirus neutralization [25]: 3.93 µg/mL; IC50 (µg/mL), pseudovirus neutralization [26]: 0.025 µg/mL; IC50 (µg/mL), pseudovirus neutralization [27]: 0.138 µg/mL; IC50 (µg/mL), pseudovirus neutralization [28]: 1.21 µg/mL; IC50, pseudovirus neutralization [29]: 0.026 µg/mL
5123_A06 (PGT-125) (antibody)	0.0214	5	1.2	0.5	1.2	1							IC50, pseudovirus neutralization (HIV-1 CMU02 Env (HIV-1)): > 10 µg/mL; IC50 (µg/mL), pseudovirus neutralization [2]: 0.876 µg/mL; IC50 (µg/mL), pseudovirus neutralization [3]: 0.026 µg/mL; IC50 (µg/mL), pseudovirus neutralization [4]: > 50 µg/mL; IC50 (µg/mL), pseudovirus neutralization [5]: > 50 µg/mL; IC50, pseudovirus neutralization [11]: 0.004 µg/mL; IC50, pseudovirus neutralization [12]: 0.007 µg/mL; IC50, pseudovirus neutralization [13]: 2.95 µg/mL; IC50, pseudovirus neutralization [14]: 0.042 µg/mL; IC50, pseudovirus neutralization [15]: 0.048 µg/mL; IC50, pseudovirus neutralization [16]: 30.1 µg/mL; IC50, pseudovirus neutralization [17]: 0.078 µg/mL
5136_H01 (PGT-131) (antibody)		> 170	0.4	0.6	1.9	1.7							IC50, pseudovirus neutralization [22]: > 50 µg/mL; IC50, pseudovirus neutralization [23]: 0.017 µg/mL; IC50, pseudovirus neutralization [24]: 1.04 µg/mL; IC50, pseudovirus neutralization [25]: > 50 µg/mL; IC50 (µg/mL), pseudovirus neutralization [26]: 3.71 µg/mL; IC50 (µg/mL), pseudovirus neutralization [27]: > 50 µg/mL; IC50 (µg/mL), pseudovirus neutralization [28]: > 50 µg/mL; IC50, pseudovirus neutralization [29]: 0.143 µg/mL
5145_B14 (PGT-127) (antibody)		10.2	1.1	0.8	0.1	2.5							IC50 (µg/mL), pseudovirus neutralization [2]: > 50 µg/mL; IC50 (µg/mL), pseudovirus neutralization [3]: 0.059 µg/mL; IC50 (µg/mL), pseudovirus neutralization [4]: > 50 µg/mL; IC50 (µg/mL), pseudovirus neutralization [5]: > 50 µg/mL; IC50, pseudovirus neutralization [11]: 0.012 µg/mL; IC50, pseudovirus neutralization [12]: 0.026 µg/mL; IC50, pseudovirus neutralization [13]: > 50 µg/mL; IC50, pseudovirus neutralization [14]: 0.164 µg/mL; IC50, pseudovirus neutralization [15]: 0.129 µg/mL; IC50, pseudovirus neutralization [16]: 36.7 µg/mL; IC50, pseudovirus neutralization [17]: > 50 µg/mL
5147_N06 (PGT-130) (antibody)	1.12	1000	1.2	0.6	1	2.6							IC50, pseudovirus neutralization (HIV-1 CMU02 Env (HIV-1)): > 10 µg/mL; IC50, pseudovirus neutralization [22]: > 50 µg/mL; IC50, pseudovirus neutralization [23]: 0.006 µg/mL; IC50, pseudovirus neutralization [24]: 0.54 µg/mL; IC50, pseudovirus neutralization [25]: > 50 µg/mL; IC50 (µg/mL), pseudovirus neutralization [26]: 2.76 µg/mL; IC50 (µg/mL), pseudovirus neutralization [27]: > 50 µg/mL; IC50 (µg/mL), pseudovirus neutralization [28]: > 50 µg/mL; IC50, pseudovirus neutralization [29]: 0.151 µg/mL
PGT-141 (4964_G22; 4993_K13) (antibody)											> 50	> 50	
PGT-142 (4995_E20) (antibody)											> 50	> 50	
PGT-143 (4980_N08) (antibody)											> 50	> 50	
PGT-144 (4970_K22) (antibody)											> 50	> 50	
PGT-145 (4995_P16) (antibody)											1.76	8.04	
VRC01 (antibody)							12.7	0.303	0.319	1.81	0.387	0.039	
